One protein from patent US20220062148 can be followed below.

The target in data set [1] is T1, Peptide sequence WGNRSPLE
T1 chain: WGNRSPLE

Data set [2] concerns the target T2, Peptide sequence FDNRVGKW
T2 chain: FDNRVGKW

The target in data set [3] is T3, Peptide sequence QGKKAPXX
T3 chain: QGKKAP

Data set [4] concerns the target T4, Peptide sequence QAVRPNGM
T4 chain: QAVRPNGM

Data set [5] has as its target T5, Peptide sequence XIARQPWN
T5 chain: ARQPWN

B1: Atlantic cod trypsin I (protein)
chain: IVGGYECTKHSQAHQVSLNSGYHFCGGSLVSKDWVVSAAHCYKSVLRVRLGEHHIRVNEGTEQYISSSSVIRHPNYSSYNINNDIMLIKLTKPATLNQYVHAVALPTECAADATMCTVSGWGNTMSSVADGDKLQCLSLPILSHADCANSYPGMITQSMFCAGYLEGGKDSCQGDSGGPVVCNGVLQGVVSWGYGCAERDHPGVYAKVCVLSGWVRDTMANY
In the case of B1, the Ion Precursor Intensities, 5′ incubation (multiplex substrate profiling, cleavage) in data set [1], in data set [2], in data set [3], in data set [4] and in data set [5] was 0 throughout. The Ion Precursor Intensities, 15′ incubation (multiplex substrate profiling, cleavage) in data set [1], in data set [2], in data set [3], in data set [4] and in data set [5] was 0 in each case. Moreover, the Ion Precursor Intensities, 60′ incubation (multiplex substrate profiling, cleavage) amounted to 0 in data set [1]; 165000 in data set [2]; 0 in data set [3]; 0 in data set [4]; 189000 in data set [5].
